The supplement of paper PMC10126150
± gives the standard deviation of the averaged measurements.
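Further: ATP exposure 15 min at 22 °C before imaging.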

Each sequence was assayed on ATP (assay: switch fluorescence ratio, 500 uM ATP over buffer (Cy3 cluster intensity, sum of 5 cycles each) (fold (ratio)); higher = stronger signal-on switching upon ATP binding; sequences stand for … in TCGTCGGCAGCGTCAGATGTGTATAAGAGACAGTTTTTTTTTTTTTTTTTTTTTTTTT…TC). Details: aptamer strand: ATP DNA aptamer (quencher-CACCTGGGGGAGTATTGCGGAGGAAGG + anchor), 100 nM annealed; ATP concentration: 500 uM.
Method in brief: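 Per cluster, summed Cy3 intensity from the target cycles was divided by that from the buffer cycles to give the fluorescence ratio, then averaged per switch-domain sequence. Clusters outside 100-1000 RFU were excluded. The Cy3-labelled switching-strand clusters, on a modified Illumina MiSeq flow-cell, were annealed to 100 nM quencher-labelled ATP aptamer and imaged in selection buffer, then after 15 min with 500 uM ATP at 22 °C, for five cycles with NaOH stripping and re-annealing between them.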
TTATCAGTGG gave a switch fluorescence ratio of 0.9707 ± 0.002. With TTATCATCTA the switch fluorescence ratio was 1.02 ± 0.013. With TTATCATGGG the switch fluorescence ratio was 0.993 ± 0.047. With TTATCCGGGT the switch fluorescence ratio was 0.9661 ± 0.0088. For TTATCGGATT, the switch fluorescence ratio was 0.983 ± 0.029. TTATCGGGAG gave a switch fluorescence ratio of 0.9964 ± 0.0019. Sequence TTATCTAATC has a switch fluorescence ratio of 0.972 ± 0.008. TTATCTCGTA gave a switch fluorescence ratio of 0.99 ± 0.013. TTATCTCTGG gave a switch fluorescence ratio of 0.9776 ± 0.0076. TTATGAAAGG showed a switch fluorescence ratio of 0.968 ± 0.03. TTATGAATAG was tested, and the switch fluorescence ratio was 0.99 ± 0.011. TTATGACATT showed a switch fluorescence ratio of 1.01 ± 0.044. TTATGACGGG showed a switch fluorescence ratio of 1 ± 0.036. TTATGAGAGC gave a switch fluorescence ratio of 0.964 ± 0.022. With TTATGAGGGG the switch fluorescence ratio was 1.009 ± 0.0077. TTATGAGTTG was tested, and the switch fluorescence ratio was 0.963 ± 0.029. In the case of TTATGAGTTT, the switch fluorescence ratio is reported as 0.988 ± 0.036. TTATGATCAG was tested, and the switch fluorescence ratio was 0.9912 ± 0.0038. TTATGATTCA gave a switch fluorescence ratio of 0.973 ± 0.022. With TTATGCAAAA the switch fluorescence ratio was 1.14 ± 0.21. TTATGCCGGG gave a switch fluorescence ratio of 0.971 ± 0.032. TTATGCTTTC gave a switch fluorescence ratio of 1.25 ± 0.34. Work on TTATGGACTG yielded a switch fluorescence ratio of 1.01 ± 0.079. Sequence TTATGGGAAG has a switch fluorescence ratio of 0.998 ± 0.013. TTATGGGCAG was tested, and the switch fluorescence ratio was 1.01 ± 0.029. In the case of TTATGGGCGA, the switch fluorescence ratio is reported as 1 ± 0.046. TTATGGTCTG was tested, and the switch fluorescence ratio was 0.984 ± 0.038. For TTATGGTGGG, the switch fluorescence ratio was 0.981 ± 0.015. For TTATGTAGGT, the switch fluorescence ratio was 0.9798 ± 0.007. In the case of TTATGTTTAA, the switch fluorescence ratio is reported as 0.999 ± 0.025. TTATTAAATG gave a switch fluorescence ratio of 0.998 ± 0.013. Sequence TTATTAAGGT has a switch fluorescence ratio of 1.01 ± 0.031. For TTATTACGCT, the switch fluorescence ratio was 0.9981 ± 0.0094. In the case of TTATTACGGG, the switch fluorescence ratio is reported as 1.01 ± 0.038. TTATTACTTA gave a switch fluorescence ratio of 0.984 ± 0.017. In the case of TTATTAGAAG, the switch fluorescence ratio is reported as 0.978 ± 0.012. For TTATTAGAGC, the switch fluorescence ratio was 0.958 ± 0.085. Work on TTATTAGGAT yielded a switch fluorescence ratio of 0.974 ± 0.024. For TTATTAGGCA, the switch fluorescence ratio was 1.01 ± 0.023. TTATTAGTCA gave a switch fluorescence ratio of 0.986 ± 0.041. TTATTATGGG gave a switch fluorescence ratio of 0.987 ± 0.0073. For TTATTCATCG, the switch fluorescence ratio was 1.01 ± 0.031. In the case of TTATTCGCAA, the switch fluorescence ratio is reported as 4.457 ± 0.044. Work on TTATTCGGTA yielded a switch fluorescence ratio of 0.9978 ± 0.0065. In the case of TTATTCGTCC, the switch fluorescence ratio is reported as 1.04 ± 0.058. TTATTCTTTC showed a switch fluorescence ratio of 1.01 ± 0.046. With TTATTGCGCT the switch fluorescence ratio was 0.994 ± 0.013. In the case of TTATTGCGGG, the switch fluorescence ratio is reported as 0.967 ± 0.019. With TTATTGGGAC the switch fluorescence ratio was 0.972 ± 0.02. TTATTGTTAC showed a switch fluorescence ratio of 1.03 ± 0.036. Sequence TTATTGTTTT has a switch fluorescence ratio of 1.02 ± 0.065. TTATTTATTT showed a switch fluorescence ratio of 0.975 ± 0.03. In the case of TTATTTGAGT, the switch fluorescence ratio is reported as 1.06 ± 0.12. TTATTTTAAC gave a switch fluorescence ratio of 0.981 ± 0.04. TTATTTTTAT gave a switch fluorescence ratio of 0.998 ± 0.018. TTATTTTTGC gave a switch fluorescence ratio of 1.01 ± 0.042. TTCAAAACGC gave a switch fluorescence ratio of 1.03 ± 0.054. TTCAAAAGGG gave a switch fluorescence ratio of 1.05 ± 0.052. TTCAAAATGT was tested, and the switch fluorescence ratio was 0.997 ± 0.032. Sequence TTCAAAGTCA has a switch fluorescence ratio of 1.02. In the case of TTCAAATGAG, the switch fluorescence ratio is reported as 0.98 ± 0.044. With TTCAAATGCT the switch fluorescence ratio was 0.998 ± 0.013. Work on TTCAAATTTA yielded a switch fluorescence ratio of 0.995 ± 0.025. In the case of TTCAACGACG, the switch fluorescence ratio is reported as 0.988 ± 0.082. Sequence TTCAAGATGG has a switch fluorescence ratio of 0.992 ± 0.046. Work on TTCAAGATTT yielded a switch fluorescence ratio of 0.974 ± 0.022. With TTCAAGCAGA the switch fluorescence ratio was 1.034 ± 0.0087. TTCAAGCTGG gave a switch fluorescence ratio of 1.039 ± 0.0098. Sequence TTCAAGGGAG has a switch fluorescence ratio of 0.995 ± 0.014. TTCAAGGGTT showed a switch fluorescence ratio of 1.07 ± 0.18. TTCAATACCG showed a switch fluorescence ratio of 1.09 ± 0.025. TTCAATATGC was tested, and the switch fluorescence ratio was 1.1 ± 0.033. TTCAATATTT was tested, and the switch fluorescence ratio was 1 ± 0.024. TTCAATCCGT gave a switch fluorescence ratio of 1.17 ± 0.24. TTCAATGTAG gave a switch fluorescence ratio of 1 ± 0.029. In the case of TTCAATTCAC, the switch fluorescence ratio is reported as 1.37 ± 0.41. Work on TTCAATTTCC yielded a switch fluorescence ratio of 1.01 ± 0.028. With TTCACAGGAG the switch fluorescence ratio was 1.12 ± 0.05. TTCACATTGG showed a switch fluorescence ratio of 1.01 ± 0.03. With TTCACGAGTG the switch fluorescence ratio was 0.988 ± 0.052. In the case of TTCACTGGGC, the switch fluorescence ratio is reported as 1.01 ± 0.0013. For TTCACTTTGA, the switch fluorescence ratio was 1.012 ± 0.0067. In the case of TTCACTTTTT, the switch fluorescence ratio is reported as 1 ± 0.012. With TTCAGAAGCC the switch fluorescence ratio was 1.12 ± 0.061. TTCAGAAGCG gave a switch fluorescence ratio of 1.01 ± 0.028.
